From patent US20220242963A1, “B-CELL ACTIVATING CD73 ANTIBODIES” (CORVUS PHARMACEUTICALS, INC., priority 2018, published 2022)

Legend:
PBMC = test: T cell proliferation and IFN-gamma secretion of healthy donor PBMC cultured with AMP; assay type: cell-based, human; conditions: CPI-006 at 500 nM, 3 mM AMP, anti-CD3 and anti-CD28, IL-2; FIGS. 1C-1D
Description: (§1) FIG. 1A provides a schematic of CD73 structure. […] Each symbol represents an independent donor.
(§2) MDA-MB-231 cells (e.g., available at ATCC® as HTB-26™) were incubated with a human IgG1 isotype control, CPI-006, CPX-016, or adenosine 5′-(α,β-methylene)diphosphate (also known as APCP, which is a small molecule inhibitor of CD73 enzymatic activity), prior to addition of 250 μM of adenosine monophosphate (AMP). Phosphate levels were measured in the cell culture supernatant using the Sensolyte Malachite Green assay kit. Peripheral blood mononuclear cells (PBMC) were isolated from healthy donors and labeled with CellTrace™ Violet (ThermoFisher Scientific) prior to culture with 1 μg/mL anti-CD3 and anti-CD28, 200 units/mL IL-2, 3 mM AMP and indicated treatments (CPI-006 at 500 nM; CPX-016 at 500 nM; human IgG1 isotype control at 890 nM). T cell proliferation was measured by Cell Trace Violet dilution and was defined by gating relative to unstimulated PBMC (FIG. 1C). IFN-gamma production was measured in cell culture supernatants by AlphaLISA (FIG. 1D). Results shown in FIGS. 1B-D illustrate that inhibition of CD73 activity has an agonistic effect on immunomodulatory activity.

B cells (CD19+CD3−) = test: B cell activation in healthy donor PBMC, flow cytometry of surface markers / phospho ERK; assay type: cell-based, human
Description: With reference to FIGS. 2A-2E, each group of four bars from left to right represent data for: untreated donors, donors treated with human IgG1 isotype control, donors treated with BCR stimulation, and donors treated with CPI-006. The experiments for FIGS. 2A-2E are based on healthy donor PBMC treated overnight with flow cytometry analysis of surface markers on B cells (CD19^POS CD3^NEG). These lymphocyte markers are consistent with activation of B cells as well as other antigen presenting cell populations. […] The bar graph legend from top to bottom is representative of the data bars from left to right. […] For FIG. 2H the bar graph legend from top to bottom is representative of the data bars from left to right. For FIG. 2I the legend from top to bottom is representative of the data from top to bottom. […] For each group of four bars, the legend from top to bottom are representative of the bars from left to right.
PBMC were isolated from healthy donors and incubated with bead-bound anti-IgM, CPI-006 (10 μg/mL), or human IgG1 isotype control (10 μg/mL) overnight. Flow cytometry analysis was performed with gating on B cells (CD19+CD3−) and mean fluorescence intensity (MFI) was reported for staining with antibodies to the cell surface markers CD69, CD83, and CD25, as shown in FIGS. 2A-2C. PBMC were isolated from healthy donors and incubated with CPI-006, CPI-016, human IgG1 isotype control, and anti-human CD73 antibody, clone AD2 (available from Bio-Rad Antibodies) over a range of concentrations from about 0.1 μg/mL to more than 10 μg/mL. Flow cytometry analysis was performed with gating on B cells (CD19+CD3−) and mean fluorescence intensity (MFI) is reported for antibody staining of CD69, as shown in FIG. 2F. PBMC were isolated from healthy donors and incubated overnight with bead-bound anti-IgM or CPI-006 (1 μg/mL)+/−BTK inhibitor, ibrutinib (100 nM). Flow cytometry analysis was performed with gating on B cells (CD19+CD3−) and mean fluorescence intensity (MFI) is reported for antibody staining of CD69 and CD83, as shown in FIG. 2G. PBMC were isolated from healthy donors and incubated overnight with APCP (1 μM) or CPI-006 (1 μg/mL)+/−NECA (5′-N-ethylcarboxamidoadenosine). Flow cytometry analysis was performed with gating on B cells (CD19+CD3−) and mean fluorescence intensity (MFI) is reported for antibody staining of CD69, as shown in FIGS. 2H-2I. PBMC were isolated from healthy donors and incubated with the indicated treatments for 15 minutes. Flow cytometry analysis was performed with gating on the indicated cell populations and staining of phospho ERK was evaluated, as shown in FIG. 2J.

CD73 [1] = target: T1, CD73 (Homo sapiens, UniProt P21589); test: CD73 catalytic activity in MDA-MB-231 cells (phosphate, Sensolyte Malachite Green); assay type: cell-based; conditions: 250 μM AMP, FIG. 1B
T1 construct: endogenous in cells; host or cells: Whole blood of cancer patients (CD73+ CD8 T cells)
T1 sequence (P21589 27-549): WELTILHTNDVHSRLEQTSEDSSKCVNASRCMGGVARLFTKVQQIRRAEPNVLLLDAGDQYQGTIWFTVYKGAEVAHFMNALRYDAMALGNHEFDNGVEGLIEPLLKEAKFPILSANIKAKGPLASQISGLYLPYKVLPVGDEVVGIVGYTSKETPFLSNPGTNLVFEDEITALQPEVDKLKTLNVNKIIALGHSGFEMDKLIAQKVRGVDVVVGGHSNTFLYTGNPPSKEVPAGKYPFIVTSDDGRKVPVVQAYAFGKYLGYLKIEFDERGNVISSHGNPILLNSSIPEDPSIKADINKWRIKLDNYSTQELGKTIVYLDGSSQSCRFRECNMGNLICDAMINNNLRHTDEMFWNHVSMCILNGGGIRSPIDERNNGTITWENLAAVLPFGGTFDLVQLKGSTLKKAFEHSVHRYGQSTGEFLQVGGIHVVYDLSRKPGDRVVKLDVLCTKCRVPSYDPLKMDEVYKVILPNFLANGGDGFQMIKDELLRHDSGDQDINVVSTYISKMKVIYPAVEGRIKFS
Description: as §1, §2

CD73 [2] = target: T1, CD73; test: CD73 enzymatic activity in MDA-MB-231 xenograft model; assay type: in vivo; conditions: MDA-MB-231 human TNBC xenograft model; FIG. 1F
Description: as §1

B1: CPI-006: humanized CD73 antibody, wherein the light chain is SEQ ID NO:8 and the heavy chain is SEQ ID NO:7; IgG1 Fcγ receptor-deficient (antibody, V domains shown)
VH: QVQLVQSGAEVEKPGASVKVSCKASGYTFTSYWITWVRQAPGQGLEWMGDIYPGSGNTNYNEKFKTRVTITADKSTSTAYMELSSLRSEDTAVYYCAKEGGLTTEDYALDYWGQGTLVTV
VL: EIVLTQSPATLSLSPGERATLSCRASKNVSTSGYSYMHWYQQKPGQAPRLLIYLASNLESGIPPRFSGSGYGTDFTLTINNIESEDAAYYFCQHSRELPFTFGQGTKVEIK
- adenosine-mediated immunosuppression (T-cell proliferation, IFN-gamma secretion) (PBMC): relieves adenosine-mediate immunosuppression
- B cell activation (CD69, CD83) +/− NECA, versus APCP (B cells (CD19+CD3−); CPI-006 1 μg/mL, APCP 1 μM, overnight, FIGS. 2H-2I): independent of adenosine
- B cell activation (CD69, CD83) +/− BTK inhibitor ibrutinib (B cells (CD19+CD3−); CPI-006 1 μg/mL, ibrutinib 100 nM, overnight, FIG. 2G): via BTK
- expression of B cell activation marker CD69 (B cells (CD19+CD3−); PBMC overnight, CPI-006 10 μg/mL, gated on B cells, FIG. 2A): induces expression
- expression of B cell activation marker CD83 (B cells (CD19+CD3−); PBMC overnight, CPI-006 10 μg/mL, gated on B cells, FIG. 2B): induces expression
- expression of B cell activation marker CD25 (B cells (CD19+CD3−); PBMC overnight, CPI-006 10 μg/mL, gated on B cells, FIG. 2C): induces expression
- antigen-presenting cell marker CD86 (B cells (CD19+CD3−); PBMC overnight, gated on B cells, FIG. 2D): activates
- antigen-presenting cell marker MHC-II (B cells (CD19+CD3−); PBMC overnight, gated on B cells, FIG. 2E): activates
- phospho-ERK signaling in B cells versus T cells (B cells (CD19+CD3−); PBMC, 15 minutes, FIG. 2J): to a greater extent than in CD4+ T cells or CD8+ T cells
- induction of B cell activation (CD69 MFI) compared with other antibodies (B cells (CD19+CD3−); about 0.1 μg/mL to more than 10 μg/mL, versus CPI-016, isotype control, AD2, FIG. 2F): unique to CPI-006
- direct B cell activation (B cells (CD19+CD3−); human B lymphocytes): directly activates human B lymphocytes
- adenosine production (CD73 catalytic activity) (CD73 [1]): blocks adenosine production
- CD73 enzymatic activity in tumor xenograft (CD73 [2]): blocks CD73 enzymatic activity
